The subject of this data set is Escherichia coli TOP10. In words: shrunken log2 fold change of peptide-encoding DNA abundance (4.5 h post-induction vs induction); higher = less antimicrobial activity (less host growth inhibition). The following applies: time post-induction: 4.5 h; library: site-saturation at positions 5, 18, 19, 20.
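Note: peptides expressed intracellularly from a pBAD plasmid library in pooled LB shake-flask culture, induced with 0.3% L-arabinose, DNA abundance read by NGS, three biological replicates, DESeq2 with apeglm shrinkage.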

With RRIRCRPPRLPRPRPRPSCDPRP, the “shrunken log2 fold change” value was -0.0533.
Consider RRIRRRPPRLPRPRPRPECNPRP, for which the “shrunken log2 fold change” value is 0.791.
As to RRIRRRPPRLPRPRPRPCWIPRP, the “shrunken log2 fold change” value is 0.063.
Under RRIRNRPPRLPRPRPRPDYDPRP stands -0.0133.
In the case of RRIRKRPPRLPRPRPRPRCWPRP, the “shrunken log2 fold change” value is 0.931.
For the sequence RRIRKRPPRLPRPRPRPGQVPRP, the “shrunken log2 fold change” value turned out to be 0.00902.
RRIRVRPPRLPRPRPRPKEHPRP: the “shrunken log2 fold change” value turned out to be 0.0755.
Regarding RRIRARPPRLPRPRPRPWWLPRP, the “shrunken log2 fold change” value was -8.93e-05.
Consider RRIRVRPPRLPRPRPRPVDFPRP, for which the “shrunken log2 fold change” value is -0.289.
Under RRIRDRPPRLPRPRPRPRYEPRP stands 0.223; under RRIRPRPPRLPRPRPRPWAGPRP, -0.0189; under RRIRSRPPRLPRPRPRPPPHPRP, 0.752.
For RRIRARPPRLPRPRPRPYINPRP, the “shrunken log2 fold change” value is -0.413.
Take RRIRTRPPRLPRPRPRPTFTPRP: the “shrunken log2 fold change” value worked out at 0.00867.
With RRIRRRPPRLPRPRPRPLTLPRP, the “shrunken log2 fold change” value was -0.142.
Regarding RRIRDRPPRLPRPRPRPSHWPRP, the “shrunken log2 fold change” value was -0.178.
Next, RRIRERPPRLPRPRPRPTSLPRP: -0.647; RRIRCRPPRLPRPRPRPYLAPRP: -0.44; RRIRDRPPRLPRPRPRPGKWPRP: -0.00965.
Next, RRIRMRPPRLPRPRPRPNVDPRP: 0.0854.
RRIRYRPPRLPRPRPRPWPGPRP: the “shrunken log2 fold change” value was -0.15.
For the sequence RRIRLRPPRLPRPRPRPPIFPRP, the “shrunken log2 fold change” value is -0.0913.
Turning to RRIRFRPPRLPRPRPRPGELPRP, the “shrunken log2 fold change” value came to 0.245.
Under RRIRPRPPRLPRPRPRPNEDPRP stands -0.509; under RRIRARPPRLPRPRPRPIWRPRP, 0.426; under RRIRSRPPRLPRPRPRPANNPRP, -0.367.
Next, RRIRCRPPRLPRPRPRPSAYPRP: -0.406.
On to RRIRSRPPRLPRPRPRPNYTPRP, for which the “shrunken log2 fold change” value is -0.479.
Next, RRIRQRPPRLPRPRPRPSRNPRP: -0.0593; RRIRLRPPRLPRPRPRPQCPPRP: -0.266.
Regarding RRIRHRPPRLPRPRPRPPPYPRP, the “shrunken log2 fold change” value worked out at 0.00808.
Next, RRIRERPPRLPRPRPRPRMPPRP: -0.0437.
For RRIRPRPPRLPRPRPRPDPFPRP, the “shrunken log2 fold change” value is -0.0897.
In the case of RRIRERPPRLPRPRPRPHAFPRP, the “shrunken log2 fold change” value is -0.0188.
As to RRIRSRPPRLPRPRPRPCTWPRP, the “shrunken log2 fold change” value was -0.125.
For RRIRARPPRLPRPRPRPMHQPRP, the “shrunken log2 fold change” value stood at 0.0908.
RRIRERPPRLPRPRPRPKVFPRP: the “shrunken log2 fold change” value amounted to 0.0354.
As for RRIRGRPPRLPRPRPRPHQKPRP, the “shrunken log2 fold change” value worked out at 0.0462.
On to RRIRPRPPRLPRPRPRPVNFPRP, for which the “shrunken log2 fold change” value is -0.59.
Under RRIRDRPPRLPRPRPRPTECPRP stands -0.0183; under RRIRCRPPRLPRPRPRPNMRPRP, 0.357.
As to RRIRFRPPRLPRPRPRPLGIPRP, the “shrunken log2 fold change” value was -0.869.
Next, RRIRCRPPRLPRPRPRPMEDPRP: -0.0146; RRIRKRPPRLPRPRPRPLTEPRP: 0.397; RRIRVRPPRLPRPRPRPWEHPRP: 0.0927.
Consider RRIRRRPPRLPRPRPRPPGMPRP, for which the “shrunken log2 fold change” value stood at 0.821.
As to RRIRIRPPRLPRPRPRPSYHPRP, the “shrunken log2 fold change” value is -0.933.
Turning to RRIRKRPPRLPRPRPRPLTLPRP, the “shrunken log2 fold change” value is 0.0103.
For the sequence RRIRCRPPRLPRPRPRPYKRPRP, the “shrunken log2 fold change” value is -0.909.
As for RRIRFRPPRLPRPRPRPHHEPRP, the “shrunken log2 fold change” value is -0.515.
RRIRCRPPRLPRPRPRPMCYPRP: the “shrunken log2 fold change” value is -0.244.
For RRIRDRPPRLPRPRPRPHWMPRP, the “shrunken log2 fold change” value stood at 0.236.
As for RRIRNRPPRLPRPRPRPVKQPRP, the “shrunken log2 fold change” value turned out to be 0.00788.
Regarding RRIRWRPPRLPRPRPRPTQDPRP, the “shrunken log2 fold change” value is 0.755.
Under RRIRPRPPRLPRPRPRPYGGPRP stands -0.153; under RRIRLRPPRLPRPRPRPFMAPRP, -0.343.
For the sequence RRIRLRPPRLPRPRPRPKMVPRP, the “shrunken log2 fold change” value was -0.146.
Turning to RRIRHRPPRLPRPRPRPSWCPRP, the “shrunken log2 fold change” value was -0.453.
Next, RRIRYRPPRLPRPRPRPQGVPRP: -0.464; RRIRSRPPRLPRPRPRPYQGPRP: -0.129; RRIRERPPRLPRPRPRPEVFPRP: 0.0133.
As to RRIRLRPPRLPRPRPRPLGKPRP, the “shrunken log2 fold change” value was -0.0194.
RRIRARPPRLPRPRPRPCVHPRP: the “shrunken log2 fold change” value was 1.06.
With RRIRLRPPRLPRPRPRPVVAPRP, the “shrunken log2 fold change” value turned out to be 0.0705.
With RRIRQRPPRLPRPRPRPQNTPRP, the “shrunken log2 fold change” value was -0.666.
As to RRIRVRPPRLPRPRPRPGYSPRP, the “shrunken log2 fold change” value was -0.553.
On to RRIRIRPPRLPRPRPRPTTMPRP, for which the “shrunken log2 fold change” value is -0.394.
Regarding RRIRYRPPRLPRPRPRPIRYPRP, the “shrunken log2 fold change” value was -0.00146.
Next, RRIRTRPPRLPRPRPRPKQEPRP: -0.0429; RRIRYRPPRLPRPRPRPIRPPRP: -0.129; RRIRVRPPRLPRPRPRPQWNPRP: -0.386.
Next, RRIRQRPPRLPRPRPRPCCDPRP: -0.0081; RRIRTRPPRLPRPRPRPMLMPRP: -0.248.
With RRIRMRPPRLPRPRPRPTTWPRP, the “shrunken log2 fold change” value is 0.745.
As for RRIRCRPPRLPRPRPRPPIAPRP, the “shrunken log2 fold change” value came to 1.41.
With RRIRWRPPRLPRPRPRPTRPPRP, the “shrunken log2 fold change” value is 0.855.
For RRIRHRPPRLPRPRPRPAHQPRP, the “shrunken log2 fold change” value was found to be 0.0515.
Take RRIRMRPPRLPRPRPRPNLCPRP: the “shrunken log2 fold change” value is 0.015.
Regarding RRIRVRPPRLPRPRPRPSFAPRP, the “shrunken log2 fold change” value came to 0.0593.
In the case of RRIRLRPPRLPRPRPRPELTPRP, the “shrunken log2 fold change” value was found to be 0.067.
Consider RRIRERPPRLPRPRPRPMKIPRP, for which the “shrunken log2 fold change” value is 0.0286.
Regarding RRIRTRPPRLPRPRPRPDMHPRP, the “shrunken log2 fold change” value is -0.249.
On to RRIRERPPRLPRPRPRPNQEPRP, for which the “shrunken log2 fold change” value was found to be 0.0174.
For RRIRNRPPRLPRPRPRPDNMPRP, the “shrunken log2 fold change” value is -0.104.
As for RRIRSRPPRLPRPRPRPCTIPRP, the “shrunken log2 fold change” value was -0.148.
For RRIRIRPPRLPRPRPRPAETPRP, the “shrunken log2 fold change” value was -0.0338.
For the sequence RRIRWRPPRLPRPRPRPCGRPRP, the “shrunken log2 fold change” value was 0.376.
Regarding RRIRLRPPRLPRPRPRPSYCPRP, the “shrunken log2 fold change” value is -0.413.
Consider RRIRGRPPRLPRPRPRPPKGPRP, for which the “shrunken log2 fold change” value was 0.673.
Take RRIRYRPPRLPRPRPRPQVWPRP: the “shrunken log2 fold change” value is -0.0375.
Regarding RRIRARPPRLPRPRPRPSCKPRP, the “shrunken log2 fold change” value is -0.291.
On to RRIRQRPPRLPRPRPRPKCMPRP, for which the “shrunken log2 fold change” value was -0.551.
With RRIRYRPPRLPRPRPRPTWSPRP, the “shrunken log2 fold change” value was -0.58.
In the case of RRIRDRPPRLPRPRPRPANHPRP, the “shrunken log2 fold change” value is -0.438.
For RRIRWRPPRLPRPRPRPQPHPRP, the “shrunken log2 fold change” value stood at 0.134.
Under RRIRLRPPRLPRPRPRPVSPPRP stands -0.00493; under RRIRKRPPRLPRPRPRPGRCPRP, 0.586.
Under RRIRYRPPRLPRPRPRPFFFPRP stands -0.253.
Consider RRIRARPPRLPRPRPRPAQSPRP, for which the “shrunken log2 fold change” value came out at 0.538.
As for RRIRCRPPRLPRPRPRPMKEPRP, the “shrunken log2 fold change” value is -0.18.
Consider RRIRKRPPRLPRPRPRPGLPPRP, for which the “shrunken log2 fold change” value was found to be 0.348.
RRIRFRPPRLPRPRPRPMNDPRP: the “shrunken log2 fold change” value is -0.122.
On to RRIRQRPPRLPRPRPRPQFMPRP, for which the “shrunken log2 fold change” value was -0.302.
Consider RRIRMRPPRLPRPRPRPELWPRP, for which the “shrunken log2 fold change” value was 3.17.
RRIRDRPPRLPRPRPRPYTWPRP: the “shrunken log2 fold change” value worked out at 0.00489.
Next, RRIRVRPPRLPRPRPRPLNWPRP: 1.03; RRIRMRPPRLPRPRPRPLFNPRP: -0.439; RRIRIRPPRLPRPRPRPKSKPRP: -0.298.
As to RRIRFRPPRLPRPRPRPCRQPRP, the “shrunken log2 fold change” value was 0.229.
On to RRIRDRPPRLPRPRPRPTFFPRP, for which the “shrunken log2 fold change” value was 2.16.
Regarding RRIRYRPPRLPRPRPRPHVRPRP, the “shrunken log2 fold change” value was -0.202.
Next, RRIRFRPPRLPRPRPRPYIWPRP: -0.425; RRIRSRPPRLPRPRPRPEYDPRP: 0.0801; RRIRWRPPRLPRPRPRPYNMPRP: -0.883.
On to RRIRCRPPRLPRPRPRPGWMPRP, for which the “shrunken log2 fold change” value is 0.0485.
On to RRIRPRPPRLPRPRPRPTDNPRP, for which the “shrunken log2 fold change” value is -0.134.
RRIRHRPPRLPRPRPRPVTSPRP: the “shrunken log2 fold change” value was -0.000369.
Take RRIRVRPPRLPRPRPRPKKQPRP: the “shrunken log2 fold change” value came out at 0.216.
On to RRIRERPPRLPRPRPRPQPSPRP, for which the “shrunken log2 fold change” value is 0.0462.
Under RRIRCRPPRLPRPRPRPKAPPRP stands 0.337.
With RRIRDRPPRLPRPRPRPRIRPRP, the “shrunken log2 fold change” value is -0.0469.
Turning to RRIRMRPPRLPRPRPRPMKNPRP, the “shrunken log2 fold change” value came to 0.328.
As for RRIRMRPPRLPRPRPRPKQSPRP, the “shrunken log2 fold change” value turned out to be 0.757.
Under RRIRMRPPRLPRPRPRPGNGPRP stands 0.885; under RRIRARPPRLPRPRPRPGCFPRP, 0.96.

The record behind these values is the supplement of paper PMC9112550, “Optimization of the antimicrobial peptide Bac7 by deep mutational scanning” (BMC Biology, 2022).
